Test results reported in patent US20220089707A1 (University of Texas, published 2022).

Target: T1, β2-microglobulin (UniProt P61769 21-119)
T1 construct: also called beta2-microglobulin
Test: ELISA

T1 sequence (P61769 21-119 limits assumed): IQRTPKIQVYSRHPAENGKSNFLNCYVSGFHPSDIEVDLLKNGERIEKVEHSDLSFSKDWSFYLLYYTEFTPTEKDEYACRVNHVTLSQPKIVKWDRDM

B1: A2-DKK1 mAb (C2) (antibody, V domains shown)
VH: DVQLVESGGGLVQPGGSRKLSCAASGFTFSSFGMHWVRQAPEKGLEWVAYISSGSSTIYYADTVKGRFTISRDNPKNTLFLQMTSLRSEDTAMYYCARPYYYGSTYDAMDYWGQGTSVTVSS
VL: DIVMTQSHKLMSTSVGDRVTITCKASQDVGSTVAWYQQKPGQSPKLLIYWTSTRHTGVPDRFTGSGSGTDFTLTISNVQSVDLAVYFCQKFGSYPLTFGGGTKLEIK
notes: Murine monoclonal antibody from a Balb/c x SP2/0 hybridoma; also called C2 mAb; antibody C2
- binding result: no binding
